Measured values: patent US20160279215A1, “NOVEL PEPTIDES AND COMBINATION OF PEPTIDES FOR USE IN IMMUNOTHERAPY AGAINST VARIOUS TUMORS” (immatics biotechnologies GmbH, priority 2015, published 2016)

B1: SVADLAHVL (peptide)
peptide: SVADLAHVL
B2: FLFVDPELV (peptide)
peptide: FLFVDPELV
B3: HLNNDRNPL (peptide)
peptide: HLNNDRNPL
B4: MTLSEIHAV (peptide)
peptide: MTLSEIHAV
B5: QIADIVTSV (peptide)
peptide: QIADIVTSV
B6: ALSTVTPRI (peptide)
peptide: ALSTVTPRI
B7: GVVPTIQKV (peptide)
peptide: GVVPTIQKV
notes: also called GWPTIQKV
B8: IMLNSVEEI (peptide)
peptide: IMLNSVEEI
B9: LLTGVFAQL (peptide)
peptide: LLTGVFAQL
B10: YLYELEHAL (peptide)
peptide: YLYELEHAL
B11: SLLNQPKAV (peptide)
peptide: SLLNQPKAV
B12: HLQEKLQSL (peptide)
peptide: HLQEKLQSL
B13: GLAEFQENV (peptide)
peptide: GLAEFQENV
B14: ALLEEEEGV (peptide)
peptide: ALLEEEEGV
notes: also called MAGEA4-003
B15: NLLIDDKGTIKL (peptide)
peptide: NLLIDDKGTIKL
B16: SLMEKNQSL (peptide)
peptide: SLMEKNQSL
B17: ALGDKFLLRV (peptide)
peptide: ALGDKFLLRV
B18: QLVQRVASV (peptide)
peptide: QLVQRVASV
B19: TLHDQVHLL (peptide)
peptide: TLHDQVHLL
notes: also called ESR1-001
B20: FLLDKPQDL (peptide)
peptide: FLLDKPQDL
B21: SLDKDIVAL (peptide)
peptide: SLDKDIVAL
B22: FVMEGEPPKL (peptide)
peptide: FVMEGEPPKL
B23: SLNKQIETV (peptide)
peptide: SLNKQIETV
B24: AVPPPPSSV (peptide)
peptide: AVPPPPSSV
B25: IKVTDPQLLEL (peptide)
peptide: IKVTDPQLLEL
B26: VLMDEGAVLTL (peptide)
peptide: VLMDEGAVLTL
B27: LLLESDPKVYSL (peptide)
peptide: LLLESDPKVYSL
B28: SLYALHVKA (peptide)
peptide: SLYALHVKA
B29: KLMDPGSLPPL (peptide)
peptide: KLMDPGSLPPL
B30: KMISAIPTL (peptide)
peptide: KMISAIPTL

Each binder was assayed against T1, HLA-A*02:01 (human) (assay: UV ligand-exchange ELISA (anti-b2m); ++ = exchange yield >=20%).
T1 construct: MHC monomers captured on streptavidin plates; the UV-sensitive peptide is cleaved and exchanged with the test peptide; also called peptide-receptive MHC molecules; MHC class I
From the text: Candidate peptides for T cell based therapies according to the present invention were further tested for their MHC binding capacity (affinity). The individual peptide-MHC complexes were produced by UV-ligand exchange, where a UV-sensitive peptide is cleaved upon UV-irradiation, and exchanged with the peptide of interest as analyzed. Only peptide candidates that can effectively bind and stabilize the peptide-receptive MHC molecules prevent dissociation of the MHC complexes. To determine the yield of the exchange reaction, an ELISA was performed based on the detection of the light chain (β2m) of stabilized MHC complexes. The assay was performed as generally described in Rodenko et al. (Rodenko et al., 2006).
96 well MAXISorp plates (NUNC) were coated over night with 2 ug/ml streptavidin in PBS at room temperature, washed 4× and blocked for 1 h at 37° C. in 2% BSA containing blocking buffer. Refolded HLA-A*02:01/MLA-001 monomers served as standards, covering the range of 15-500 ng/ml. Peptide-MHC monomers of the UV-exchange reaction were diluted 100 fold in blocking buffer. Samples were incubated for 1 h at 37° C., washed four times, incubated with 2 ug/ml HRP conjugated anti-β2m for 1 h at 37° C., washed again and detected with TMB solution that is stopped with […]. Absorption was measured at 450 nm. Candidate peptides that show a high exchange yield (preferably higher than 50%, most preferred higher than 75%) are generally preferred for a generation and production of antibodies or fragments thereof, and/or T cell receptors or fragments thereof, as they show sufficient avidity to the MHC molecules and prevent dissociation of the MHC complexes.

Question: How did the peptide exchange yield turn out when B1 was run?
Answer: 20 to 50%

Question: Which peptide exchange yield does the source give for B2 here?
Answer: 20 to 50%

Question: With B3 as the binder, how does the peptide exchange yield read?
Answer: 20 to 50%

Question: How did the peptide exchange yield turn out when B4 was run?
Answer: 20 to 50%

Question: With B5 as the binder, how does the peptide exchange yield read?
Answer: 20 to 50%

Question: For B6, which peptide exchange yield is on record?
Answer: 20 to 50%

Question: With B7 as the binder, how does the peptide exchange yield read?
Answer: 20 to 50%

Question: How did the peptide exchange yield turn out when B8 was run?
Answer: 20 to 50%

Question: With B9 as the binder, how does the peptide exchange yield read?
Answer: 20 to 50%

Question: For B10, which peptide exchange yield is on record?
Answer: 20 to 50%

Question: For B11, which peptide exchange yield is on record?
Answer: 20 to 50%

Question: With B12 as the binder, how does the peptide exchange yield read?
Answer: 20 to 50%

Question: How did the peptide exchange yield turn out when B13 was run?
Answer: 20 to 50%

Question: For B14, which peptide exchange yield is on record?
Answer: 20 to 50%

Question: B15 was tested. Which peptide exchange yield did it give?
Answer: 20 to 50%

Question: Which peptide exchange yield does the source give for B16 here?
Answer: 20 to 50%

Question: B17 was tested. Which peptide exchange yield did it give?
Answer: 20 to 50%

Question: How did the peptide exchange yield turn out when B18 was run?
Answer: 20 to 50%

Question: Which peptide exchange yield does the source give for B19 here?
Answer: 20 to 50%

Question: With B20 as the binder, how does the peptide exchange yield read?
Answer: 20 to 50%

Question: With B21 as the binder, how does the peptide exchange yield read?
Answer: 20 to 50%

Question: With B22 as the binder, how does the peptide exchange yield read?
Answer: 20 to 50%

Question: For B23, which peptide exchange yield is on record?
Answer: 20 to 50%

Question: B24 was tested. Which peptide exchange yield did it give?
Answer: 20 to 50%

Question: B25 was tested. Which peptide exchange yield did it give?
Answer: 20 to 50%

Question: Which peptide exchange yield does the source give for B26 here?
Answer: 20 to 50%

Question: With B27 as the binder, how does the peptide exchange yield read?
Answer: 20 to 50%

Question: Which peptide exchange yield does the source give for B28 here?
Answer: 20 to 50%

Question: Which peptide exchange yield does the source give for B29 here?
Answer: 20 to 50%

Question: How did the peptide exchange yield turn out when B30 was run?
Answer: 20 to 50%
